Patent publication US20200179497A1

Molecular target: IVIg (Octagam)
Experiment: cell-based or functional assay

| Binder | enzyme concentration giving an intense scIgG band on SDS-PAGE | enzyme concentration giving mainly scIgG on SDS-PAGE | further results |
| --- | --- | --- | --- |
| pCART229 (enzyme) MDDYQRNATEAYAKEVPHQITSVWTKGVTPPEQFTQGEDVIHAPYLAHQGWYDITKAFDGKDNLLCGAATAGNMLHWWFDQNKTEIEAYLSKHPEKQKIIFRNQELFDLKAAIDTKDSQTNSQLFNYFRDKAFPNLSARQLGVMPDLVLDMFINGYYLNVFKTQSTDVNRPYQDKDKRGGIFDAVFTRGNQTTLLTARHDLKNKGLNDISTIIKQELTEGRALALSHTYANVSISHVINLWGADFNAEGNLEAIYVTDSDANASIGMKKYFVGINAHGHVAISAKKIEGENIGAQVLGLFTLSSGKDIWQKLSGGGHHHHHH |  |  | Conc. of enzyme, 1st IgG heavy chain, IgG to scIgG (gel): 1900 ng/mL; Conc. of enzyme, 2nd IgG heavy chain, scIgG to F(ab')2 (gel): 7500 ng/mL |
| pCART202 (enzyme) MDDYQRNATEAYAKEVPHQITSVWTKGVTPLTPEQFTQGEDVIHAPYLAHQGWYDITKAFDGKDNLLCGAATAGNMLHWWFDQNKTEIEAYLSKHPEKQKIIFNNQELFDLKAAIDTKDSQTNSQLFNYFRDKAFPNLSARQLGVMPDLVLDMFINGYYLNVFKTQSTDVNRPYQDKDKRGGIFDAVFTRGDQTTLLTARHDLKNKGLNDISTIIKQELTEGRALALSHTYANVSISHVINLWGADFNAEGNLEAIYVTDSDANASIGMKKYFVGINAHGHVAISAKKIEGENIGAQVLGLFTLSSGKDIWQKLSGGGHHHHHH | 0.94 ng/mL |  |  |
| pCART203 (enzyme) MDDYQRNATEAYAKEVPHQITSVWTKGVTPPEQFTQGEDVIHAPYLAHQGWYDITKAFDGKDNLLCGAATAGNMLHWWFDQNKTEIEAYLSKHPEKQKIIFNNQELFDLKAAIDTKDSQTNSQLFNYFRDKAFPNLSARQLGVMPDLVLDMFINGYYLNVFKTQSTDVNRPYQDKDKRGGIFDAVFTRGDQTTLLTARHDLKNKGLNDISTIIKQELTEGRALALSHTYANVSISHVINLWGADFNAEGNLEAIYVTDSDANASIGMKKYFVGINAHGHVAISAKKIEGENIGAQVLGLFTLSSGKDIWQKLSGGGHHHHHH | 0.94 ng/mL | 0.9 ng/mL |  |
| pCART204 (enzyme) MDDYQRNATEAYAKEVPHQITSVWTKGVTPPEQFRYNNEDVIHAPYLAHQGWYDITKAFDGKDNLLCGAATAGNMLHWWFDQNKTEIEAYLSKHPEKQKIIFNNQELFDLKAAIDTKDSQTNSQLFNYFRDKAFPNLSARQLGVMPDLVLDMFINGYYLNVFKTQSTDVNRPYQDKDKRGGIFDAVFTRGDQTTLLTARHDLKNKGLNDISTIIKQELTEGRALALSHTYANVSISHVINLWGADFNAEGNLEAIYVTDSDANASIGMKKYFVGINAHGHVAISAKKIEGENIGAQVLGLFTLSSGKDIWQKLSGGGHHHHHH | 0.94 ng/mL |  |  |
| pCART210 (enzyme) MDDYQRNATEAYAKEVPHQITSVWTKGVTPPEQFTQGEDVIHAPYLANQGWYDITKAFDGKDNLLCGAATAGNMLHWWFDQNKTEIEAYLSKHPEKQKIIFRNQELFDLKEAIRTKDSQTNSQLFEYFRDKAFPYLSARQLGVMPDLVLDMFINGYYLNVFKTQSTDVKRPYQDKDKRGGIFDAVFTRGNQTTLLTARHDLKNKGLNDISTIIKEELTKGRALALSHTYANVSISHVINLWGADFNAEGNLEAIYVTDSDANASIGMKKYFVGINKHGHVAISAKKIEGENIGAQVLGLFTLSSGKDIWQKLNGGGHHHHHH |  | 0.9 ng/mL |  |
| pCART208 (enzyme) MDDYQRNATEAYAKEVPHQITSVWTKGVTPPEQFTQGEDVIHAPYLAHQGWYDITKAFDGKDNLLCGAATAGNMLHWWFDQNKTEIEAYLSKHPEKQKIIIRNQELFDLKAAIDTKDSQTNSQLFNYFRDKAFPNLSARQLGVMPDLVLDMFINGYYLNVFKTQSTDVNRPYQDKDKRGGIFDAVFTRGDQTTLLTARHDLKNKGLNDISTIIKQELTEGRALALSHTYANVSISHVINLWGADFNAEGNLEAIYVTDSDANASIGMKKYFVGINAHGHVAISAKKIEGENIGAQVLGLFTLSSGKDIWQKLSGGGHHHHHH |  | 0.5 ng/mL | enzyme concentration giving a dominating F(ab')2 band on SDS-PAGE: 1.9 ng/mL |
